Molecular target: SARS-CoV-2 XBB.1.16 RBD protein (SARS-CoV-2 Omicron XBB.1.16, strain)
Experiment: BLI

B1: CYFN1006-1 (antibody, V domains shown)
VH: QMQLVQSGAEVKKPGESLKISCKGSGYTFSYYWIGWVRQMPGKGLEWMGIIYPGDSDTRYSPSFQGQVTISADKSISTAYLHWSSLKASDTAMYYCARQGDLGDWILLGYWGQGTLVTVSS
VL: QSALTQPRSVSGSLGQSVTISCTGISSDVGGDNYVSWYQQHPGKAPKLMIYDVSKRPSGVPDRFSGSKSGNTASLTISGLQADDEADYYCCSYALSRVVFGGGTMLTVL
- Kd: 1.37 nM
